Drawing on paper PMC11417369, “DNA sequence and chromatin differentiate sequence-specific transcription factor binding in the human malaria parasite Plasmodium falciparum”, this text covers binding signal for 42 molecules.

Sequences and labels used below:
B1: GTGCAC_site10014 (dsDNA)
DNA 1: TTTACCTCTTCAATGGTGCAATAACTCAAAAATTTG
DNA 2: CAAATTTTTGAGTTATTGCACCATTGAAGAGGTAAA
B2: GTGCAC_site10007 (dsDNA)
DNA 1: TTTCTTTTTTCTTCAGTGCATTAAAATTAACAAAAG
DNA 2: CTTTTGTTAATTTTAATGCACTGAAGAAAAAAGAAA
B3: GTGCAC_site9443 (dsDNA)
DNA 1: ACCATATATTAAAAAGTGCATTAAATATATAAATAT
DNA 2: ATATTTATATATTTAATGCACTTTTTAATATATGGT
B4: GTGCAC_site9879 (dsDNA)
DNA 1: TTTTTATTTTTAGTAGTGCATTAATCATATGGTCAT
DNA 2: ATGACCATATGATTAATGCACTACTAAAAATAAAAA
B5: GTGCAC_site10332 (dsDNA)
DNA 1: ATTACATTAATAAGAGTGCATTATATAAGTTTTATG
DNA 2: CATAAAACTTATATAATGCACTCTTATTAATGTAAT
B6: GTGCAC_site9493 (dsDNA)
DNA 1: TAAAATTATTAATGAGTGCATTATAAAATCTATATA
DNA 2: TATATAGATTTTATAATGCACTCATTAATAATTTTA
B7: GTGCAC_site9773 (dsDNA)
DNA 1: TTAAAAATTATATAAGTGCATTAATATTTAGAACAA
DNA 2: TTGTTCTAAATATTAATGCACTTATATAATTTTTAA
B8: GTGCAC_site9463 (dsDNA)
DNA 1: ATTAAAAAATCCATAGTGCACTACGATAGGTTCCGA
DNA 2: TCGGAACCTATCGTAGTGCACTATGGATTTTTTAAT
B9: GTGCAC_site10275 (dsDNA)
DNA 1: AATATTCATATGCAGGTGCATTAATTTTTATTAATT
DNA 2: AATTAATAAAAATTAATGCACCTGCATATGAATATT
B10: GTGCAC_site10233 (dsDNA)
DNA 1: TTTTTTAAATTTAAAGTGCATTATTATATATTTGTA
DNA 2: TACAAATATATAATAATGCACTTTAAATTTAAAAAA
B11: GTGCAC_site10028 (dsDNA)
DNA 1: ATTATAATTACTCTAGTGCATTATAAATATGAATAA
DNA 2: TTATTCATATTTATAATGCACTAGAGTAATTATAAT
B12: GTGCAC_site10254 (dsDNA)
DNA 1: GTATATAAATAAATAGTGCATTATTAAAAATAATGT
DNA 2: ACATTATTTTTAATAATGCACTATTTATTTATATAC
B13: GTGCAC_site9437 (dsDNA)
DNA 1: CATTTTCATTTTAAGGTGCATTAATATTTATTTTAA
DNA 2: TTAAAATAAATATTAATGCACCTTAAAATGAAAATG
B14: GTGCAC_site9711 (dsDNA)
DNA 1: TTAAATTATTAGAGAGTGCATTATATATATTATACA
DNA 2: TGTATAATATATATAATGCACTCTCTAATAATTTAA
B15: GTGCAC_site9607 (dsDNA)
DNA 1: TATTCAGGTCCAATGGTGCAATATATTTTTGTAATA
DNA 2: TATTACAAAAATATATTGCACCATTGGACCTGAATA
B16: GTGCAC_site10146 (dsDNA)
DNA 1: GAGGTACATTAATTAGTGCATTAAAATTTTTATCCT
DNA 2: AGGATAAAAATTTTAATGCACTAATTAATGTACCTC
B17: GTGCAC_site9557 (dsDNA)
DNA 1: TTTTTATGGACTATGGTGCATTATATATAAATGAAA
DNA 2: TTTCATTTATATATAATGCACCATAGTCCATAAAAA
B18: GTGCAC_site10298 (dsDNA)
DNA 1: ATTTATTTCTTGTTAGTGCACTTTCTTTGGTAAAAT
DNA 2: ATTTTACCAAAGAAAGTGCACTAACAAGAAATAAAT
B19: GTGCAC_site10285 (dsDNA)
DNA 1: CATAAATAAGCTTTAGTGCATTATATTTAAATTTTT
DNA 2: AAAAATTTAAATATAATGCACTAAAGCTTATTTATG
B20: GTGCAC_site10551 (dsDNA)
DNA 1: ATATATAAAAATTAGGTGCATTAAATTAAAATATAT
DNA 2: ATATATTTTAATTTAATGCACCTAATTTTTATATAT
B21: GTGCAC_site9729 (dsDNA)
DNA 1: GAACAAATTAAATAGGTGCATTAACATGTTCTATTT
DNA 2: AAATAGAACATGTTAATGCACCTATTTAATTTGTTC
B22: GTGCAC_site10132 (dsDNA)
DNA 1: AGTGTGTGTAATAAAGTGCATTAAAAATGACACGTA
DNA 2: TACGTGTCATTTTTAATGCACTTTATTACACACACT
B23: GTGCAC_site9883 (dsDNA)
DNA 1: ATTAAATGCAGTTCGGTGCATTAAGGTTATGATGAA
DNA 2: TTCATCATAACCTTAATGCACCGAACTGCATTTAAT
B24: GTGCAC_site9835 (dsDNA)
DNA 1: ATTTAAAAGTTGGTAGTGCATTAAAAATAACAAAAA
DNA 2: TTTTTGTTATTTTTAATGCACTACCAACTTTTAAAT
B25: GTGCAC_site9795 (dsDNA)
DNA 1: ATCATATTTATGTTGGTGCATTATGCATGGATTTTA
DNA 2: TAAAATCCATGCATAATGCACCAACATAAATATGAT
B26: GTGCAC_site9571 (dsDNA)
DNA 1: ATCATATTTATATTGGTGCATTATGCATGAAATTTA
DNA 2: TAAATTTCATGCATAATGCACCAATATAAATATGAT
B27: GTGCAC_site10150 (dsDNA)
DNA 1: TTTCCCTCAAATAAAGTGCATTATGATTTTAATTTA
DNA 2: TAAATTAAAATCATAATGCACTTTATTTGAGGGAAA
B28: GTGCAC_site9803 (dsDNA)
DNA 1: GTAGTAATAAATCTAGTGCATTATATATAACAAAAA
DNA 2: TTTTTGTTATATATAATGCACTAGATTTATTACTAC
B29: GTGCAC_site9836 (dsDNA)
DNA 1: ATTATATACATTTTAGTGCATTACATAATAATATAA
DNA 2: TTATATTATTATGTAATGCACTAAAATGTATATAAT
B30: GTGCAC_site10160 (dsDNA)
DNA 1: ATTCATTTACCAATGGTGCAATATATTTTTATAATG
DNA 2: CATTATAAAAATATATTGCACCATTGGTAAATGAAT
B31: GTGCAC_site9419 (dsDNA)
DNA 1: ATATAAAGTATGTTAGTGCACTTTTTTTTTTTTTTT
DNA 2: AAAAAAAAAAAAAAAGTGCACTAACATACTTTATAT
B32: GTGCAC_site10158 (dsDNA)
DNA 1: AGGTTTTCTTAAATAGTGCATTATAACAAAAATAAA
DNA 2: TTTATTTTTGTTATAATGCACTATTTAAGAAAACCT
B33: GTGCAC_site10036 (dsDNA)
DNA 1: TCATAGGGGTAGAAGGTGCAATAAAAAAGAAGAAAA
DNA 2: TTTTCTTCTTTTTTATTGCACCTTCTACCCCTATGA
B34: GTGCAC_site10279 (dsDNA)
DNA 1: GCCAATAAAGATGTGGTGCATTATATATATATATAT
DNA 2: ATATATATATATATAATGCACCACATCTTTATTGGC
B35: GTGCAC_site10447 (dsDNA)
DNA 1: TAATGAGCGCTTGTAGTGCATTATATTCAAAAATAT
DNA 2: ATATTTTTGAATATAATGCACTACAAGCGCTCATTA
B36: GTGCAC_site10763 (dsDNA)
DNA 1: AGGATAAAAGTTATGGTGCATTAACCTATTTAAATA
DNA 2: TATTTAAATAGGTTAATGCACCATAACTTTTATCCT
B37: GTGCAC_site10253 (dsDNA)
DNA 1: TTTTTTTTTTTGATGGTGCAATATATTAAATAGAAA
DNA 2: TTTCTATTTAATATATTGCACCATCAAAAAAAAAAA
B38: GTGCAC_site9970 (dsDNA)
DNA 1: ACTGTAATATTGAAAGTGCATTAAAGTGTATATTAT
DNA 2: ATAATATACACTTTAATGCACTTTCAATATTACAGT
B39: GTGCAC_site10703 (dsDNA)
DNA 1: TTTTTAATTTCAATGGTGCAGTAATAATATAATAGT
DNA 2: ACTATTATATTATTACTGCACCATTGAAATTAAAAA
B40: GTGCAC_site9564 (dsDNA)
DNA 1: GAAAATTTAAAAAGAGTGCATTATATGTTTGAATAT
DNA 2: ATATTCAAACATATAATGCACTCTTTTTAAATTTTC
B41: GTGCAC_site9852 (dsDNA)
DNA 1: ATAATATATAATATAGTGCATTATTTATTAATTAAT
DNA 2: ATTAATTAATAAATAATGCACTATATTATATATTAT
B42: GTGCAC_site10087 (dsDNA)
DNA 1: TGTCACTACAAATGAGTGCATTAAATAATTTGGAAA
DNA 2: TTTCCAAATTATTTAATGCACTCATTTGTAGTGACA

In the series the target is AP2-I D3 (Plasmodium falciparum, UniProt Q8IJW6 910-1027). The series can be described thus: gcPBM; about 25 ug protein; PBS, 1% milk, 0.2 mg/ml BSA, salmon testes DNA, 0.03% Triton X-100. The following applies: tags: N-terminal GST (pGEX-4T-1), kept; label: surface-attached array probe.
Take B1: the binding signal was 12.3 ln median PBM intensity, better of two orientations.
Consider B2, for which the binding signal was 12 ln median PBM intensity, better of two orientations.
As to B3, the binding signal was 12 ln median PBM intensity, better of two orientations.
In the case of B4 it was 12.1 ln median PBM intensity, better of two orientations; in that of B5, 12.1 ln median PBM intensity, better of two orientations.
Turning to B6, the binding signal is 12.1 ln median PBM intensity, better of two orientations.
For the molecule B7, the binding signal is 12 ln median PBM intensity, better of two orientations.
On to B8, for which the binding signal is 12.1 ln median PBM intensity, better of two orientations.
Regarding B9, the binding signal is 12.2 ln median PBM intensity, better of two orientations.
Then B10, with 12 ln median PBM intensity, better of two orientations; and B11, with 12 ln median PBM intensity, better of two orientations.
B12: the binding signal is 12.2 ln median PBM intensity, better of two orientations.
With B13, the binding signal was 12.1 ln median PBM intensity, better of two orientations.
Then B14, with 12.1 ln median PBM intensity, better of two orientations; and B15, with 12 ln median PBM intensity, better of two orientations.
B16: the binding signal is 12.2 ln median PBM intensity, better of two orientations.
Then B17, with 12.3 ln median PBM intensity, better of two orientations; and B18, with 12.1 ln median PBM intensity, better of two orientations.
For B19, the binding signal is 12.2 ln median PBM intensity, better of two orientations.
On to B20, for which the binding signal was 12 ln median PBM intensity, better of two orientations.
For B21, the binding signal is 12.2 ln median PBM intensity, better of two orientations.
Turning to B22, the binding signal was 12 ln median PBM intensity, better of two orientations.
Turning to B23, the binding signal is 12.1 ln median PBM intensity, better of two orientations.
Consider B24, for which the binding signal is 12.2 ln median PBM intensity, better of two orientations.
Then B25, with 12.2 ln median PBM intensity, better of two orientations; and B26, with 12.1 ln median PBM intensity, better of two orientations; and B27, with 12 ln median PBM intensity, better of two orientations.
For B28, the binding signal is 12 ln median PBM intensity, better of two orientations.
In the case of B29 it was 12.1 ln median PBM intensity, better of two orientations.
B30: the binding signal is 12 ln median PBM intensity, better of two orientations.
In the case of B31 it was 12.1 ln median PBM intensity, better of two orientations.
Turning to B32, the binding signal is 12.1 ln median PBM intensity, better of two orientations.
As to B33, the binding signal is 12 ln median PBM intensity, better of two orientations.
Then B34, with 12.1 ln median PBM intensity, better of two orientations.
Regarding B35, the binding signal is 12 ln median PBM intensity, better of two orientations.
As for B36, the binding signal was 12.1 ln median PBM intensity, better of two orientations.
In the case of B37, the binding signal is 12.2 ln median PBM intensity, better of two orientations.
In the case of B38, the binding signal is 12 ln median PBM intensity, better of two orientations.
Regarding B39, the binding signal was 12 ln median PBM intensity, better of two orientations.
Then B40, with 12 ln median PBM intensity, better of two orientations.
Take B41: the binding signal was 12 ln median PBM intensity, better of two orientations.
Turning to B42, the binding signal was 12 ln median PBM intensity, better of two orientations.
